Results published in article PMC5027281 (Nature Communications, 2016).

Molecular target: Recombinant full-length HA of A/Vietnam/1203/04 (H5-VN04) (Influenza A virus A/Vietnam/1203/2004 …, UniProt Q5EP31)
Assay: BLI
Settings: both partners purified

B1: 3I14 VLD94N variant IgG1 (antibody, V domains shown)
VH: QVQLLESGGGVVQPGRSLRLSCAASGFTFSNYGMHWVRQAPGKGLEWVAIISFDGSKKYYANSVKGRSTISRDNSKNTLSLQMNSLGPEDTALYYCAKLPSPYYFDSRFVWVAASAFHFWGQGILVTVSS
VL: NFMLTQPPSASGTPGQRVTISCSGSSSNIGGNTVHWFQQLPGTAPKLLIYTNSLRPSGVPDRFSGSKSGTSASLAISGLQSEDEADYYCAAWDNSLNGQVFGGGTKLTVL
B1 showed a Kd of 0.187 nM, a koff of 7.74e-05 s⁻¹ and a kon of 383000 M⁻¹ s⁻¹.
